From article PMC6768103, “Functional and structural characterization of HspB1/Hsp27 from Chinese hamster ovary cells” (FEBS Open Bio, 2019)

Columns and labels:
[1] = target: the molecule itself; experiment: SEC-MALS; TSKgel G3000XL column, buffer B (50 mM Tris/HCl pH 7.5, 0.1 mM EDTA, 150 mM NaCl), room temperature
[2] = target: T1, porcine heart citrate synthase (pig, UniProt P00889 28-464); experiment: SEC; mixture of CgHspB1WT (30 µM) and CS incubated at 55 °C for 30 min, cooled to 25 °C and analysed at 25 °C; settings: both partners purified
T1 construct: citrate synthase from porcine heart; Client protein; the complex with CgHspB1 appeared only after heating at 55 °C (heat-denatured CS); also called CS
T1 sequence (looked up): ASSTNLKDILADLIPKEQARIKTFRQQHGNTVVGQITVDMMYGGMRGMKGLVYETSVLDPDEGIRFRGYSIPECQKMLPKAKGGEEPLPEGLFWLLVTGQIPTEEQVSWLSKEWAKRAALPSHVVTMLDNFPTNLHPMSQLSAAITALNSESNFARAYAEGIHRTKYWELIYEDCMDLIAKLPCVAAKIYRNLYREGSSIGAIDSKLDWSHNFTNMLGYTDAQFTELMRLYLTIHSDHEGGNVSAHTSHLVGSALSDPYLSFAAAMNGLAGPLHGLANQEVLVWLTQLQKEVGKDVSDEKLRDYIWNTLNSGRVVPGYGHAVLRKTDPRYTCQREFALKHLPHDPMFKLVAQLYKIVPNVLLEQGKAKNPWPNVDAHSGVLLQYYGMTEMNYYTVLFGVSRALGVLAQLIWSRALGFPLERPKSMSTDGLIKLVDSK

[3] = target: the molecule itself; experiment: SEC; SB-804HQ column on HPLC, buffer B with 20% ethylene glycol, 6 or 12 µM as monomer, heated 30 min at the specified temperature and run at the same temperature
[4] = target: the molecule itself; experiment: SEC; mixture of CgHspB1WT (30 µM) and IPMDH incubated at 25 and 55 °C for 30 min and analysed at the same temperature; the 55 °C mixture also cooled and analysed at 25 °C

B1: wild‐type CgHspB1 (HspB1/Hsp27 from Chinese hamster ovary cells) (natural protein, Chinese hamster (Cricetulus griseus), UniProt A0A8C2QII0 1-213, looked up)
chain: MTERRVPFSLLRSPSWEPFRDWYPAHSRLFDQAFGVPRLPDEWSQWFSAAGWPGYVRPLPAATAEGPAAVALAAPLAAPAFHRALNRQLSSGVSEIRQTADRWRVSLDVNHFAPEELTVKTKEGVVEITGKHEERQDEHGYISRCFTRKYTLPPGVDPTLVSSSLSPEGTLTVEAPLPKTATQSAEITIPVTFEARAQIGGQEAGKSEQSGAK
notes: HspB1/Hsp27 of Chinese hamster (Cricetulus griseus), full-length gene amplified from total cDNA of CHO cells; deduced subunit mass 23.4 kDa; 16-mer at room temperature by SEC-MALS; the oligomer varies with temperature and concentration; also called CgHspB1WT; HspB1 from CHO cells; source: E. coli BL21 Star (DE3) / BL21 (DE3), pET23b, purified (DEAE, RESOURCE Q, Superdex 200); copies: 16
- stoichiometry N [1]: 16
- binding result [2]: binds
- stoichiometry N [3]: ~2

B2: CgHspB1 with S15D mutation (natural protein, Chinese hamster (Cricetulus griseus), UniProt A0A8C2QII0 1-213, looked up)
chain: MTERRVPFSLLRSPDWEPFRDWYPAHSRLFDQAFGVPRLPDEWSQWFSAAGWPGYVRPLPAATAEGPAAVALAAPLAAPAFHRALNRQLSSGVSEIRQTADRWRVSLDVNHFAPEELTVKTKEGVVEITGKHEERQDEHGYISRCFTRKYTLPPGVDPTLVSSSLSPEGTLTVEAPLPKTATQSAEITIPVTFEARAQIGGQEAGKSEQSGAK
notes: HspB1/Hsp27 of Chinese hamster (Cricetulus griseus), full-length gene from CHO cell cDNA, with S15D; Made by site-directed mutagenesis on pET23b-CgHspB1WT; also called CgHspB1S15D; CgHspBS15D; source: E. coli BL21 (DE3), pET23b, purified (DEAE, RESOURCE Q, Superdex 200)
- stoichiometry N [3]: ~2

B3: isopropyl malate dehydrogenase from Thermus thermophilus HB8 (enzyme, UniProt Q5SIY4 1-345, looked up)
chain: MKVAVLPGDGIGPEVTEAALKVLRALDEAEGLGLAYEVFPFGGAAIDAFGEPFPEPTRKGVEEAEAVLLGSVGGPKWDGLPRKIRPETGLLSLRKSQDLFANLRPAKVFPGLERLSPLKEEIARGVDVLIVRELTGGIYFGEPRGMSEAEAWNTERYSKPEVERVARVAFEAARKRRKHVVSVDKANVLEVGEFWRKTVEEVGRGYPDVALEHQYVDAMAMHLVRSPARFDVVVTGNIFGDILSDLASVLPGSLGLLPSASLGRGTPVFEPVHGSAPDIAGKGIANPTAAILSAAMMLEHAFGLVELARKVEDAVAKALLETPPPDLGGSAGTEAFTATVLRHLA
notes: isopropyl malate dehydrogenase (3-isopropylmalate dehydrogenase) from Thermus thermophilus HB8; also called IPMDH
- stoichiometry N [4]: 2
